The values below come from patent US20210388087A1 (Chugai, published 2021).

The labels stand for the following.
B1: H183/L072 VL Q27W (antibody, name in Kabat numbering, V domains shown)
VH: QVQLVESGGGLVQPGRSLRLSCAASGFTFSNAWMHWVRQAPGKGLEWVAQIKDKGNAYAAYYAPSVKGRFTISRDDSKNSIYLQMNSLKTEDTAVYYCHYVHYASASTVLPAFGVDAWGQGTTVTVSS
VL: DIVMTQSPLSLPVTPGEPASISCQASWELVHMNRNTYLHWYQQKPGQAPRLLIYKVSNRFPGVPDRFSGSGSGTDFTLKISRVEAEDVGVYYCAQGTSVPFTFGQGTKLEIK
notes: Dual-Ig
B2: H183/L072 VL R29W (antibody, name in Kabat numbering, V domains shown)
VH: B1 VH
VL: B1 VL with W27Q, R34W
notes: Dual-Ig
B3: H183/L072 VL Q90D (antibody, name in Kabat numbering, V domains shown)
VH: B1 VH
VL: B1 VL with W27Q, Q95D
notes: Dual-Ig
B4: H183/L072 VL R29M (antibody, name in Kabat numbering, V domains shown)
VH: B1 VH
VL: B1 VL with W27Q, R34M
notes: Dual-Ig
B5: H183/L072 VL Q90G (antibody, name in Kabat numbering, V domains shown)
VH: B1 VH
VL: B1 VL with W27Q, Q95G
notes: Dual-Ig
B6: H183/L072 VL R29A (antibody, name in Kabat numbering, V domains shown)
VH: B1 VH
VL: B1 VL with W27Q, R34A
notes: Dual-Ig
B7: H183/L072 VL Q90S (antibody, name in Kabat numbering, V domains shown)
VH: B1 VH
VL: B1 VL with W27Q, Q95S
notes: Dual-Ig
B8: H183/L072 VL R29K (antibody, name in Kabat numbering, V domains shown)
VH: B1 VH
VL: B1 VL with W27Q, R34K
notes: Dual-Ig
B9: H183/L072 VL Q90R (antibody, name in Kabat numbering, V domains shown)
VH: B1 VH
VL: B1 VL with W27Q, Q95R
notes: Dual-Ig
B10: H183/L072 VL R54G (antibody, name in Kabat numbering, V domains shown)
VH: B1 VH
VL: B1 VL with W27Q, R59G
notes: Dual-Ig
B11: H183/L072 VL R29E (antibody, name in Kabat numbering, V domains shown)
VH: B1 VH
VL: B1 VL with W27Q, R34E
notes: Dual-Ig
B12: H183/L072 VL R54H (antibody, name in Kabat numbering, V domains shown)
VH: B1 VH
VL: B1 VL with W27Q, R59H
notes: Dual-Ig
B13: H183/L072 VL R54D (antibody, name in Kabat numbering, V domains shown)
VH: B1 VH
VL: B1 VL with W27Q, R59D
notes: Dual-Ig
B14: H183/L072 VL Q90L (antibody, name in Kabat numbering, V domains shown)
VH: B1 VH
VL: B1 VL with W27Q, Q95L
notes: Dual-Ig
B15: H183/L072 VL R54I (antibody, name in Kabat numbering, V domains shown)
VH: B1 VH
VL: B1 VL with W27Q, R59I
notes: Dual-Ig
B16: H183/L072 VL Q90H (antibody, name in Kabat numbering, V domains shown)
VH: B1 VH
VL: B1 VL with W27Q, Q95H
notes: Dual-Ig
B17: H183/L072 VL Q90N (antibody, name in Kabat numbering, V domains shown)
VH: B1 VH
VL: B1 VL with W27Q, Q95N
notes: Dual-Ig
B18: H183/L072 VL R54E (antibody, name in Kabat numbering, V domains shown)
VH: B1 VH
VL: B1 VL with W27Q, R59E
notes: Dual-Ig
B19: H183/L072 VL R29G (antibody, name in Kabat numbering, V domains shown)
VH: B1 VH
VL: B1 VL with W27Q, R34G
notes: Dual-Ig
B20: H183/L072 VL Q90W (antibody, name in Kabat numbering, V domains shown)
VH: B1 VH
VL: B1 VL with W27Q, Q95W
notes: Dual-Ig
B21: H183/L072 VL R29T (antibody, name in Kabat numbering, V domains shown)
VH: B1 VH
VL: B1 VL with W27Q, R34T
notes: Dual-Ig
B22: H183/L072 VL Q27Y (antibody, name in Kabat numbering, V domains shown)
VH: B1 VH
VL: B1 VL with W27Y
notes: Dual-Ig
B23: H183/L072 VL R29Q (antibody, name in Kabat numbering, V domains shown)
VH: B1 VH
VL: B1 VL with W27Q, R34Q
notes: Dual-Ig
B24: H183/L072 VL R54F (antibody, name in Kabat numbering, V domains shown)
VH: B1 VH
VL: B1 VL with W27Q, R59F
notes: Dual-Ig
B25: H183/L072 VL Q90F (antibody, name in Kabat numbering, V domains shown)
VH: B1 VH
VL: B1 VL with W27Q, Q95F
notes: Dual-Ig
B26: H183/L072 VL Q90T (antibody, name in Kabat numbering, V domains shown)
VH: B1 VH
VL: B1 VL with W27Q, Q95T
notes: Dual-Ig
B27: H183/L072 VL Q90P (antibody, name in Kabat numbering, V domains shown)
VH: B1 VH
VL: B1 VL with W27Q, Q95P
notes: Dual-Ig
B28: H183/L072 VL Q90M (antibody, name in Kabat numbering, V domains shown)
VH: B1 VH
VL: B1 VL with W27Q, Q95M
notes: Dual-Ig
B29: H183/L072 VL Q90E (antibody, name in Kabat numbering, V domains shown)
VH: B1 VH
VL: B1 VL with W27Q, Q95E
notes: Dual-Ig
B30: H183/L072 VL R29I (antibody, name in Kabat numbering, V domains shown)
VH: B1 VH
VL: B1 VL with W27Q, R34I
notes: Dual-Ig
B31: H183/L072 VL R29F (antibody, name in Kabat numbering, V domains shown)
VH: B1 VH
VL: B1 VL with W27Q, R34F
notes: Dual-Ig
B32: H183/L072 VL Q90K (antibody, name in Kabat numbering, V domains shown)
VH: B1 VH
VL: B1 VL with W27Q, Q95K
notes: Dual-Ig
B33: H183/L072 VL R29Y (antibody, name in Kabat numbering, V domains shown)
VH: B1 VH
VL: B1 VL with W27Q, R34Y
notes: Dual-Ig
B34: H183/L072 VL R29D (antibody, name in Kabat numbering, V domains shown)
VH: B1 VH
VL: B1 VL with W27Q, R34D
notes: Dual-Ig
B35: H183/L072 VL R29P (antibody, name in Kabat numbering, V domains shown)
VH: B1 VH
VL: B1 VL with W27Q, R34P
notes: Dual-Ig
B36: H183/L072 VL R29N (antibody, name in Kabat numbering, V domains shown)
VH: B1 VH
VL: B1 VL with W27Q, R34N
notes: Dual-Ig
B37: H183/L072 VL R29L (antibody, name in Kabat numbering, V domains shown)
VH: B1 VH
VL: B1 VL with W27Q, R34L
notes: Dual-Ig
B38: H183/L072 VL R29H (antibody, name in Kabat numbering, V domains shown)
VH: B1 VH
VL: B1 VL with W27Q, R34H
notes: Dual-Ig
B39: H183/L072 VL R29S (antibody, name in Kabat numbering, V domains shown)
VH: B1 VH
VL: B1 VL with W27Q, R34S
notes: Dual-Ig
B40: H183/L072 VL R29V (antibody, name in Kabat numbering, V domains shown)
VH: B1 VH
VL: B1 VL with W27Q, R34V
notes: Dual-Ig
B41: H183/L072 VL Q90V (antibody, name in Kabat numbering, V domains shown)
VH: B1 VH
VL: B1 VL with W27Q, Q95V
notes: Dual-Ig
B42: H183/L072 VL Q90I (antibody, name in Kabat numbering, V domains shown)
VH: B1 VH
VL: B1 VL with W27Q, Q95I
notes: Dual-Ig
B43: H183/L072 VL Q90A (antibody, name in Kabat numbering, V domains shown)
VH: B1 VH
VL: B1 VL with W27Q, Q95A
notes: Dual-Ig
B44: H183/L072 VL R54A (antibody, name in Kabat numbering, V domains shown)
VH: B1 VH
VL: B1 VL with W27Q, R59A
notes: Dual-Ig

Substitutions are numbered along the chain they refer to.

The target of this assay is T1, Human CD137 ECD (human).
T1 construct: entry includes C-terminal His-tag and biotin acceptor peptide; also called human CD137 extracellular domain; 4-1BB
T1 sequence (chain, as listed by the source limits assumed): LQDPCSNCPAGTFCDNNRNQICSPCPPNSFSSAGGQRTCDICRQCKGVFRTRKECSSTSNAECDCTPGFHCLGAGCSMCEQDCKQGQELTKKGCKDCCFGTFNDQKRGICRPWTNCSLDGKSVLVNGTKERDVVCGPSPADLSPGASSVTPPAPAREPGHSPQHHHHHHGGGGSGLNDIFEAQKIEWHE
Kind of assay: Biacore SPR, vs parent H183/L072. A general note: In SPR one partner is held on a chip, and binding of the other changes the refractive index at the surface.
Consider B1, for which the “fold change of affinity” value was 0.5 fold.
In the case of B2, the “fold change of affinity” value is 0.6 fold.
For the molecule B3, the “fold change of affinity” value was determined as 0 fold.
Next, B4: 0.9 fold; B5: 0 fold.
B6: the “fold change of affinity” value is 0.8 fold.
Regarding B7, the “fold change of affinity” value is 0 fold.
For B8 the value was 1.1 fold.
Regarding B9, the “fold change of affinity” value amounted to 0 fold.
Next, B10: 0.9 fold; B11: 0.4 fold.
Turning to B12, the “fold change of affinity” value turned out to be 0.6 fold.
Consider B13, for which the “fold change of affinity” value worked out at 0.3 fold.
As for B14, the “fold change of affinity” value was determined as 0 fold.
Next, B15: 1 fold.
Turning to B16, the “fold change of affinity” value turned out to be 0.2 fold.
On to B17, for which the “fold change of affinity” value was found to be 0 fold.
Next, B18: 0.6 fold; B19: 1.1 fold.
As for B20, the “fold change of affinity” value was determined as 0 fold.
Consider B21, for which the “fold change of affinity” value worked out at 0.8 fold.
Take B22: the “fold change of affinity” value is 0.7 fold.
On to B23, for which the “fold change of affinity” value turned out to be 0.9 fold.
For B24 the value was 0.3 fold; for B25, 0 fold.
B26: the “fold change of affinity” value was 0 fold.
For B27, the “fold change of affinity” value was 0 fold.
In the case of B28, the “fold change of affinity” value worked out at 0 fold.
As for B29, the “fold change of affinity” value came to 0 fold.
For B30 the value was 0.3 fold; for B31, 0.7 fold; for B32, 0 fold.
With B33, the “fold change of affinity” value came to 0.6 fold.
As to B34, the “fold change of affinity” value is 0.3 fold.
As for B35, the “fold change of affinity” value turned out to be 0.2 fold.
On to B36, for which the “fold change of affinity” value amounted to 0.9 fold.
For B37, the “fold change of affinity” value came out at 0.9 fold.
For the molecule B38, the “fold change of affinity” value stood at 0.8 fold.
Regarding B39, the “fold change of affinity” value amounted to 0.9 fold.
Turning to B40, the “fold change of affinity” value was 0.3 fold.
Regarding B41, the “fold change of affinity” value stood at 0 fold.
B42: the “fold change of affinity” value was found to be 0 fold.
Take B43: the “fold change of affinity” value came to 0 fold.
As for B44, the “fold change of affinity” value is 0.9 fold.
